# Target: GLP-1 receptor on RIN-m5F rat insulinoma cells (rat) (UniProt P32301)
# Experiment: cell-based or functional assay
# Chain of UniProt P32301 (P32301 22-463): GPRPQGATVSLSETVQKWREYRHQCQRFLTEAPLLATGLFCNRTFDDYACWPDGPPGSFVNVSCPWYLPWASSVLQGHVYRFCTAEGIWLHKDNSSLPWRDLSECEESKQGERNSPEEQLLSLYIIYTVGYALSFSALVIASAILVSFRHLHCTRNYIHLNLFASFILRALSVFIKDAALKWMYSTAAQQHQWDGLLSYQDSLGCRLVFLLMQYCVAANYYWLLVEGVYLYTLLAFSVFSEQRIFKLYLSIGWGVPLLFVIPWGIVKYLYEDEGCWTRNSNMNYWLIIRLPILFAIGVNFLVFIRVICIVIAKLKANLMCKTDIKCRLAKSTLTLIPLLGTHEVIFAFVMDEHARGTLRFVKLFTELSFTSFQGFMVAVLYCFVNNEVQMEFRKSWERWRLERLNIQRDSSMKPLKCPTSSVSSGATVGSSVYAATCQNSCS
Substance,"cAMP production in RIN-m5F cells, EC50 [nM]","cAMP production in RIN-m5F cells, ratio vs Exendin4 (ratio vs Exendin4)"
desamino-histidyl-exendin-4 (from UniProt P26349 48-86) (peptide),0.95,127
imidazoacetyl-exendin-4 (from UniProt P26349 48-86) (peptide),1.2,100

# Reference: patent publication US9422349
